Assays:
Assay in all cases: SPR
Conditions in all cases: not given in the material (no Methods text)
HILI (PIWIL2) (human) = HILI (PIWIL2) (human) (UniProt Q8TC59)
MILI (PIWIL2) (mouse) = MILI (PIWIL2) (mouse) (UniProt Q8CDG1)
[1] = target: T1, EfPiwi (Ephydatia fluviatilis) (UniProt D5MRY8)
T1 sequence: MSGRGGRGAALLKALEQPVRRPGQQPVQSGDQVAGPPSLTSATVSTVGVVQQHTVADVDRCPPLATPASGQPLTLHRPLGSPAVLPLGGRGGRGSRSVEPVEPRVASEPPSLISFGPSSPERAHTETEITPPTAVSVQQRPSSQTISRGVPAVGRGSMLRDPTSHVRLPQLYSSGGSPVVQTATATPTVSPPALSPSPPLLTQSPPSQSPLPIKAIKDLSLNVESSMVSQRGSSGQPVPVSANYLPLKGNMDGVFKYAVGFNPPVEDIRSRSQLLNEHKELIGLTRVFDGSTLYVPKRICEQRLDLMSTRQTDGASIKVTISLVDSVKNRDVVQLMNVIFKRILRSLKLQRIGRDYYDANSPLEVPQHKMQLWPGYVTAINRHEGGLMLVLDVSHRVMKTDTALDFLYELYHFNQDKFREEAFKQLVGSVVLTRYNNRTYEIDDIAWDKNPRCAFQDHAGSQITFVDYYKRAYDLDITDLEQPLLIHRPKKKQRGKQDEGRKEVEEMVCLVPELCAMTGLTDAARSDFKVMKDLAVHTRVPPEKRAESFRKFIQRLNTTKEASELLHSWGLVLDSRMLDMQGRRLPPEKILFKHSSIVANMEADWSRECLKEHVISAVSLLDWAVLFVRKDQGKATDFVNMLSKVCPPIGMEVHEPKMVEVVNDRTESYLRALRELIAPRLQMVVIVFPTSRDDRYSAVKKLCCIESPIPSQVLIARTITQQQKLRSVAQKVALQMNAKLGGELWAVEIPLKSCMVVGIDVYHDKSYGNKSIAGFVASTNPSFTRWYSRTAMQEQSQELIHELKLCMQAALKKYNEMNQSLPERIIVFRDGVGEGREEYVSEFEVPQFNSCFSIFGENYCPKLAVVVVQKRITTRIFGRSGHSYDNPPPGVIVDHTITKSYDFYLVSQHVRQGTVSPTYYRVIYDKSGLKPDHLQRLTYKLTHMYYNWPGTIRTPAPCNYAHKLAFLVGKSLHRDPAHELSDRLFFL

MILI (PIWIL2) (mouse), sequence (Q8CDG1 whole entry): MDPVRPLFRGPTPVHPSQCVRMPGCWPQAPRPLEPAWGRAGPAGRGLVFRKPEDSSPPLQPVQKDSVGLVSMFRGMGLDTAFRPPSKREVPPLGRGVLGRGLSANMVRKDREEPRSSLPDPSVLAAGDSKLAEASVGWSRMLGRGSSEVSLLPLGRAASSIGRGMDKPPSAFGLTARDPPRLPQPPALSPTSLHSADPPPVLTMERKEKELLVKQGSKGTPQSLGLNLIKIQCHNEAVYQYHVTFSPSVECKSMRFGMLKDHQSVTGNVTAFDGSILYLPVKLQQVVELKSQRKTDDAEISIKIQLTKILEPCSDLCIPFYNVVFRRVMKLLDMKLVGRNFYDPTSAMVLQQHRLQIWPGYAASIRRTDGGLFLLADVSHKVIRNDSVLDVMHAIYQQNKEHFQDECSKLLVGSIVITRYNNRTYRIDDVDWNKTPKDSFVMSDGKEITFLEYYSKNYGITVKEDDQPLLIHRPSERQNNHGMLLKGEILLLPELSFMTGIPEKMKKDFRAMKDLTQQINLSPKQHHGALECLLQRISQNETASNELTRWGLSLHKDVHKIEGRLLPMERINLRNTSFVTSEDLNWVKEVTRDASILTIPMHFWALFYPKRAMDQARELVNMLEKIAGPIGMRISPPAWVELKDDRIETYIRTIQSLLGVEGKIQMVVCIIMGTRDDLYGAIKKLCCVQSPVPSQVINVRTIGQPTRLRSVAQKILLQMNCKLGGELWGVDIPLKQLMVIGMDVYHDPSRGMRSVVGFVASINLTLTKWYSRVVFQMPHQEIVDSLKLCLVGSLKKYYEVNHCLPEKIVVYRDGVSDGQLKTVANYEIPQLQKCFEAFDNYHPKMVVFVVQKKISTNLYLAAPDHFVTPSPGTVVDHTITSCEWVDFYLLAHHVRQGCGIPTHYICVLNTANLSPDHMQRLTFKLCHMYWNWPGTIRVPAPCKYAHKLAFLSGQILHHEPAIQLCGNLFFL
HILI (PIWIL2) (human), sequence (Q8TC59 whole entry): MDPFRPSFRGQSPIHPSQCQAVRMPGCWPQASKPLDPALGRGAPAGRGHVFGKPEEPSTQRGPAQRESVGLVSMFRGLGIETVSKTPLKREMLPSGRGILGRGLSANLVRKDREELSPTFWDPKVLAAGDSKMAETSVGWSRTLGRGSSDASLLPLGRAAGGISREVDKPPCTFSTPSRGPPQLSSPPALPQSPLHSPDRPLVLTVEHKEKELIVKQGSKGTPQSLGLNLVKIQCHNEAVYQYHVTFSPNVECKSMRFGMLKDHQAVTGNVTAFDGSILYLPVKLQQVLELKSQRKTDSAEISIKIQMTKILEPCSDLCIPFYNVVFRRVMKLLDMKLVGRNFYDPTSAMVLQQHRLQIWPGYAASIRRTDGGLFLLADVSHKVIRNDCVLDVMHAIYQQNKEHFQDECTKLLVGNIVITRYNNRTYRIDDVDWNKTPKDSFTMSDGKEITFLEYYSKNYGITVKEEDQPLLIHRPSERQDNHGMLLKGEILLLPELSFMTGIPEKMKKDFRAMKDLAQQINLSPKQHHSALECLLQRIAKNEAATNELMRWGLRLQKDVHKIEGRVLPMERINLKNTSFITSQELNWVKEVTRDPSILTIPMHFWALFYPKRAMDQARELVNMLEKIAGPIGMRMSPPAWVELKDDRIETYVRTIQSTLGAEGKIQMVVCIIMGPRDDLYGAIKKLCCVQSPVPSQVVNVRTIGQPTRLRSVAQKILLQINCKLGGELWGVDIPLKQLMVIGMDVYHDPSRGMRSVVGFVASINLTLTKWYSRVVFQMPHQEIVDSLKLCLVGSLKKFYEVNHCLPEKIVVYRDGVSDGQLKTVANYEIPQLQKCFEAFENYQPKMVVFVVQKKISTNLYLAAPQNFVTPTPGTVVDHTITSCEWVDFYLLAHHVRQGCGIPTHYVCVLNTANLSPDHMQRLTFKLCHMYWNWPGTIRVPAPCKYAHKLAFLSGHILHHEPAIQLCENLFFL

## piRNA guide + seed-complementary (g2-g8) target
HILI (PIWIL2) (human)
  binding signal (fold higher affinity than EfPiwi): 6
MILI (PIWIL2) (mouse)
  binding signal (fold higher affinity than EfPiwi): 6

## piRNA guide + target with g3-g4 dinucleotide mismatch
[1]
  binding signal (fold higher KD than MILI or HILI): 20

Reference: publication doi:10.1101/2023.06.23.546240
